Results from patent US20230277590A1.

What was measured:
[1] = target: Mesothelin (MSLN) on target cells (human)
[2] = target: Mesothelin (MSLN) on target cells (human); remark: listed apart in the source

Substance | Time (hours) to 80% max killing of HeLa cells by transduced primary T cells (hours to 80% max killing (E:T 4:1)) [1] | EC50, Jurkat NFAT luciferase, HEK293 cells transfected with titrated MSLN mRNA (MSLN molecules/cell) [2]
M5 MSLN CAR, third generation | 28 | 
m912 MSLN CAR (Gen3) |  | 80000
